Test results from patent US20120263652A1 (UNIVERSITY OF MARYLAND COLLEGE PARK, published 2012).

What was measured:
[1] = molecular target: human ICAM-1 (native, expressed on human cells: HUVEC, Caco-2) (human) (UniProt P05362); assay: FITC IgG polystyrene carriers on fixed TNF-α-activated Caco-2 cells; fluorescence microscopy
[2] = molecular target: human ICAM-1 (native, expressed on human cells: HUVEC, Caco-2) (human) (UniProt P05362); assay: competition: free non-specific IgG against FITC anti-ICAM carriers on Caco-2 cells; fluorescence microscopy
[3] = molecular target: T1, human ICAM-1 (native, expressed on human cells: HUVEC, Caco-2) (human, UniProt P05362 28-532); assay: competition: synthetic peptide against FITC anti-ICAM polystyrene nanocarriers on human endothelial cells; fluorescence microscopy
T1 construct: whole, on cells; also called intercellular adhesion molecule 1; native human ICAM-1
Description: (A) ELISA measurement of the binding of 7-mer peptide expressing phage library to immobilized recombinant ICAM-1 (consisting of the two most membrane-distal Ig domains −1 and 2- of mouse ICAM-1 fused to human Fc or hFc), versus their binding to control hFc. (B) Relative specificity and (C) relative affinity of ICAM-1-targeting peptide phages, determined by ELISA from the experiment in (A). (D) Relative binding of phages expressing 7-mer peptides to native ICAM-1 expressed on the surface of HV5 mouse endothelial cells, either control or activated with TNFalpha to mimic a disease phenotype. Binding was determined by microscopy using a fluorescently-labeled antibody to the phage capsid. The line in the graph indicates the level of binding of A1 phage to 293 cells, which are voided of ICAM-1-expression. […] (G) Binding of FITC-labeled anti-ICAM polystyrene nanocarriers to human endothelial cells was evaluated by fluorescence microscopy after incubation with cells in the absence (100% level) or presence of anti-ICAM antibody, ICAM-1-targeting synthetic peptides, or peptides with their scramble sequence (e.g., A1 sc).

[4] = molecular target: T1, human ICAM-1 (native, expressed on …); assay: 100 nm FITC polystyrene carriers coated with peptide on endothelial cells; fluorescence microscopy
[5] = molecular target: mouse ICAM-1 (native, expressed on mouse endothelial cells) (mouse) (UniProt P13597); assay: phage binding to H5V mouse endothelial cells; microscopy with fluorescent antibody to the phage capsid
[6] = molecular target: T2, mouse ICAM-1 chimera: the two most membrane-distal Ig domains (1 and 2) of mouse ICAM-1 fused to human Fc (mouse; human, UniProt P13597 28-214, limits assumed); assay: phage ELISA, binding to mouse ICAM-1/hFc relative to control hFc
T2 construct: domain: the two most membrane-distal Ig domains -1 and 2-; also called mouse ICAM-1/Fc; mouse ICAM-1/hFc; not shown: human Fc (hFc)
Description: (§1) Example 5 details development of the 7-mer phage-display derived peptides against ICAM-1. These were identified and isolated from a random library by using a chimeric ICAM-1 protein consisting of the two most membrane-distal Ig domains of mouse ICAM-1 fused to human Fc (hFc). One round of negative selection against hFc, followed by three rounds of positive selection against mouse ICAM-1/hFc, rendered six phage clones (A1, B7, B8, B9, B10, and D6), which recognized immobilized mouse ICAM-1 (FIG. 5A).
(§2) (A) ELISA measurement of the binding of 7-mer peptide expressing phage library to immobilized recombinant ICAM-1 (consisting of the two most membrane-distal Ig domains −1 and 2- of mouse ICAM-1 fused to human Fc or hFc), versus their binding to control hFc. (B) Relative specificity and (C) relative affinity of ICAM-1-targeting peptide phages, determined by ELISA from the experiment in (A). (D) Relative binding of phages expressing 7-mer peptides to native ICAM-1 expressed on the surface of HV5 mouse endothelial cells, either control or activated with TNFalpha to mimic a disease phenotype. Binding was determined by microscopy using a fluorescently-labeled antibody to the phage capsid.

[7] = molecular target: T2, mouse ICAM-1 chimera: the two most …; assay: phage ELISA on immobilized mouse ICAM-1/hFc, relative to non-selected phages
Description: as §1, §2

[8] = molecular target: T2, mouse ICAM-1 chimera: the two most …; assay: phage ELISA on immobilized mouse ICAM-1/hFc
Description: as §1, §2

[9] = molecular target: T2, mouse ICAM-1 chimera: the two most …; assay: γ3 absorbed on 100 nm FITC polystyrene particles; nitrocellulose-immobilized ICAM-1/Fc vs albumin; fluorescence microscopy
Experimental: (A) The peptide γ3 was absorbed on the surface of 100 nm FITC-labeled polystyrene carriers and the resulting products were incubated for 15 min on nitrocellulose-immobilized albumin vs human or mouse ICAM-1 chimeras containing ICAM-1-Ig domains 1 and 2 fused to human Fc sequence. The membranes were washed and analyzed by fluorescence microscopy to quantify the number of carriers bound per area. Data are expressed relative to non-specific binding of γ3 carriers to albumin controls (dotted line). A comparison to binding of anti-ICAM carriers is provided (dashed line). (B) Binding of FITC-labeled polystyrene carriers coated by absorption with the peptide γ3 and recombinant acid sphingomyelinase (ASM, a therapeutic enzyme) to activated HUVEC (bars) vs ICAM-1-negative 293 cells (dotted line) was quantified by fluorescence microscopy after 1 h incubation at 37° C., in the absence or presence of excess γ3, anti-ICAM, γ3 scramble peptide, or mannose 6 phosphate (M6P). […] (C) HUVEC lysosomes were labeled for 2 h with Texas-red dextran at 37° C. […] Co-localization of FITC carriers with Texas-red dextran-lysosomes was quantified by fluorescence microscopy. […] Co-localization of FITC 2γ3 carriers with Texas red dextran-labeled lysosomes was assessed by microscopy 3 h post-internalization. […]

T2 sequence (P13597 28-214 limits assumed, stated change not applied): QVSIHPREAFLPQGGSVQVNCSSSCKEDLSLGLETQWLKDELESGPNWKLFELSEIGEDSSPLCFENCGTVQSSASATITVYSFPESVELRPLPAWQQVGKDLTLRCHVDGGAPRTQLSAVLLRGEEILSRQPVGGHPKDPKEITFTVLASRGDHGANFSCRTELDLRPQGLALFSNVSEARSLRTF
T1 sequence (P05362 28-532): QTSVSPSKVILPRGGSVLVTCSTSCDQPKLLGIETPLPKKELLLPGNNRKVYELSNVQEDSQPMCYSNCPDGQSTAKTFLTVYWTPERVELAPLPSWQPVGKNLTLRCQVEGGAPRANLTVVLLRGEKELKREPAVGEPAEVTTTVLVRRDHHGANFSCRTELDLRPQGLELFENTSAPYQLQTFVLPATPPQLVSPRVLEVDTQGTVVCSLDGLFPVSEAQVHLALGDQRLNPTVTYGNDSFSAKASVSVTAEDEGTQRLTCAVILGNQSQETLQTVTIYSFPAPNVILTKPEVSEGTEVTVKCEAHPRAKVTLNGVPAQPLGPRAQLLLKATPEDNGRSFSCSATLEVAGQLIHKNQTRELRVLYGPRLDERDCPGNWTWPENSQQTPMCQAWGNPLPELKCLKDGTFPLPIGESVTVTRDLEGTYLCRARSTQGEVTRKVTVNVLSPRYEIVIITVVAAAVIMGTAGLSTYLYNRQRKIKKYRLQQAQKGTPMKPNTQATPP
Chain of human ICAM-1 (native, expressed on human cells: HUVEC, Caco-2) (human) (P05362 28-532): as above

With non-specific IgG (control) (antibody) the carriers/cell (carriers/cell) [1] was 1.3 and the carrier binding, % of the control value with no competitor [2] was 102 % of control.

B1: B8 peptide (phage display-derived 7-mer) (peptide)
peptide: GSLLSAA
notes: Tested as a phage clone and as a synthetic peptide; The assay field says which; also called B8 clone
B1: binds [3].

B2: 2γ3 peptide (peptide)
peptide: NNQKIVNIKEKVAQIEA
notes: Derivative of γ3, tested absorbed on polystyrene or PLGA carriers; also called 2γ3 carriers; 2γ3/ASM carriers
B2: binds [4].

B3: 3γ3 peptide (peptide)
peptide: NNQKLVNIKEKVAQIEA
notes: Derivative of γ3, tested absorbed on polystyrene carriers; also called 3γ3 carriers; 3γ3/ASM carriers
B3: binds [4].

With GCKLCAQ [D6 peptide (phage display-derived 7-mer)] the affinity, % of A1 [5] was 92.9 % of A1.

B4: A1 peptide (phage display-derived 7-mer) (peptide)
peptide: YPASYQR
notes: Tested as a phage clone (5 copies of the peptide on the capsid; coat protein fusion not described) and as a peptide synthesized in vitro; The assay field says which; also called A1 clone; clone A1 phages
With B4 the “specificity vs hFc” value [6] was ~5.1 fold and the “affinity, fold over non-selected phages” value [7] was ~4.7 fold.

B5: B9 peptide (phage display-derived 7-mer) (peptide)
peptide: FSPHSRT
notes: Tested as a phage clone and as a synthetic peptide; The assay field says which; also called B9 clone
With B5 the binding result [8] was “binds” and the affinity, % of A1 [5] was 72.3 % of A1.

B6: γ3 peptide (17 amino acid peptide derived from the γ chain of fibrinogen) (peptide)
peptide: NNQKIVNLKEKVAQLEA
notes: Synthetic peptide; Tested mostly absorbed on 100 nm FITC polystyrene carriers, in some assays together with recombinant acid sphingomyelinase (ASM); also called γ3 carriers; γ3/ASM carriers
B6: binds [9].
